Data reported in patent US20060286636A1 (published 2006).
Changes are numbered by the printed parent chain. In names and notes the source's numbering stands.

B1: VEGF164 (wild type) (ligand)
chain: APTTEGEQKSHEVIKFMDVYQRSYCRPIETLVDIFQEYPDEIEYIFKPSCVPLMRCAGCCNDEALECVPTSESNITMQIMRIKPHQSQHIGEMSFLQHSRCECRPKKDRTKPENHCEPCSERRKHLFVQDPQTCKCSCKNTDSRCKARQLELNERTCRCDKPRR
B2: VEGF164 mutant K26A (ligand, mouse, UniProt Q00731-2 27-190, looked up)
chain: B1 chain with K135A
notes: mature
B3: VEGF120 (ligand)
chain: APTTEGEQKSHEVIKFMDVYQRSYCRPIETLVDIFQEYPDEIEYIFKPSCVPLMRCAGCCNDEALECVPTSESNITMQIMRIKPHQSQHIGEMSFLQHSRCECRPKKDRTKPEKCDKPRR
B4: recombinant heparin-binding domain of VEGF164 (HBD) (peptide)
chain: ARQENPCGPCSERRKHLFVQDPQTCKCSCKNTDSRCKARQLELNERTCRCDKPRR
notes: also called soluble HBD; VEGF55
B5: VEGF164 double mutant R14A/R49A (ligand)
chain: APMAEGGGQNHHEVVKFMDVYQRSYCHPIETLVDIFQEYPDEIEYIFKPSCVPLMRCGGCCNDEGLECVPTEESNITMQIMRIKPHQGQHIGEMSFLQHNKCECRPKKDRARQENPCGPCSERAKHLFVQDPQTCKCSCKNTDSRCKARQLELNERTCACDKPRR
notes: ID No. 23; also called R14/R49A; mutant R14/R49A

Assays:
[1] = molecular target: T1, rat Neuropilin-1/Fc chimeric receptor (rat, UniProt Q9QWJ9 22-854); assay: competition plate binding assay, cold competitor against 125I-VEGF165 on immobilized rat neuropilin-1/Fc, without heparin
[2] = molecular target: T2, mouse VEGFR-1/Fc chimeric receptor (mouse, UniProt P35969 23-759); assay: competition plate binding assay: cold competitor against 125I-VEGF165 on immobilized VEGFR-1 (Flt-1)/Fc, scintillation counting
T2 construct: Bought from R&D Systems; also called Flt-1; Flt-1 receptor

[3] = molecular target: T3, mouse VEGFR-2/Fc chimeric receptor (mouse, UniProt P35918 20-762); assay: competitive binding of cold competitor against 125I-VEGF165 on immobilized mouse VEGFR-2/Fc, one-site competition fit [panel VEGFR-2]
T3 construct: Bought from R&D Systems; also called KDR; KDR receptor

[4] = molecular target: T1, rat Neuropilin-1/Fc chimeric receptor; assay: competition plate binding assay, VEGF164 against 125I-VEGF165 on immobilized rat neuropilin-1/Fc, compared with HBD
[5] = molecular target: T2, mouse VEGFR-1/Fc chimeric receptor; assay: competitive binding of cold competitor against 125I-VEGF165 on immobilized mouse VEGFR-1/Fc, one-site competition fit [panel VEGFR-1]
[6] = molecular target: T3, mouse VEGFR-2/Fc chimeric receptor; assay: competition plate binding assay: cold competitor against 125I-VEGF165 on immobilized VEGFR-2 (KDR)/Fc, scintillation counting
[7] = molecular target: T1, rat Neuropilin-1/Fc chimeric receptor; assay: competition plate binding assay: cold competitor against 125I-VEGF165 on immobilized Np-1/Fc, scintillation counting
[8] = molecular target: T1, rat Neuropilin-1/Fc chimeric receptor; assay: competition plate binding assay, HBD against 125I-VEGF165 on immobilized rat neuropilin-1/Fc

T1 sequence (Q9QWJ9 22-854, stated change not applied): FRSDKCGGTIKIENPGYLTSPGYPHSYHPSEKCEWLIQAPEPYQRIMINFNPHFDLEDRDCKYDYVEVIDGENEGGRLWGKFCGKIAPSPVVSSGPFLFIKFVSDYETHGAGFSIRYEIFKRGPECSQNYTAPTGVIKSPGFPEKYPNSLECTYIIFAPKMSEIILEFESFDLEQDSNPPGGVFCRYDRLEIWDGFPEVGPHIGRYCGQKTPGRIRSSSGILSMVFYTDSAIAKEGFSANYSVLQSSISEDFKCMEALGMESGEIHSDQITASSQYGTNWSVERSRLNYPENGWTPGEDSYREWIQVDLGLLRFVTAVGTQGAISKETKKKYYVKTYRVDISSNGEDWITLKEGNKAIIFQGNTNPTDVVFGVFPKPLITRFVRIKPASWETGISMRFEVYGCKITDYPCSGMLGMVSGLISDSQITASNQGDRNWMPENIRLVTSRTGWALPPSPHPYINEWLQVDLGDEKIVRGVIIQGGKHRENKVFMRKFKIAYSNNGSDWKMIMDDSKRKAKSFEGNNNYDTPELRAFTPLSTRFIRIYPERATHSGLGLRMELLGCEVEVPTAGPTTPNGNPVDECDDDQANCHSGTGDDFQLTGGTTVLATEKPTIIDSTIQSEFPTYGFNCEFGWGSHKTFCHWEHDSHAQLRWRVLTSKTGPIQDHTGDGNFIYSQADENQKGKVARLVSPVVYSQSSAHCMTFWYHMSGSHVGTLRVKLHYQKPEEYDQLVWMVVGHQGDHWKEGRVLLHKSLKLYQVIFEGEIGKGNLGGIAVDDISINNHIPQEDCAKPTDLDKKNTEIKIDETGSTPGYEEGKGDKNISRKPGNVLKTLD
T3 sequence (P35918 20-762, stated change not applied): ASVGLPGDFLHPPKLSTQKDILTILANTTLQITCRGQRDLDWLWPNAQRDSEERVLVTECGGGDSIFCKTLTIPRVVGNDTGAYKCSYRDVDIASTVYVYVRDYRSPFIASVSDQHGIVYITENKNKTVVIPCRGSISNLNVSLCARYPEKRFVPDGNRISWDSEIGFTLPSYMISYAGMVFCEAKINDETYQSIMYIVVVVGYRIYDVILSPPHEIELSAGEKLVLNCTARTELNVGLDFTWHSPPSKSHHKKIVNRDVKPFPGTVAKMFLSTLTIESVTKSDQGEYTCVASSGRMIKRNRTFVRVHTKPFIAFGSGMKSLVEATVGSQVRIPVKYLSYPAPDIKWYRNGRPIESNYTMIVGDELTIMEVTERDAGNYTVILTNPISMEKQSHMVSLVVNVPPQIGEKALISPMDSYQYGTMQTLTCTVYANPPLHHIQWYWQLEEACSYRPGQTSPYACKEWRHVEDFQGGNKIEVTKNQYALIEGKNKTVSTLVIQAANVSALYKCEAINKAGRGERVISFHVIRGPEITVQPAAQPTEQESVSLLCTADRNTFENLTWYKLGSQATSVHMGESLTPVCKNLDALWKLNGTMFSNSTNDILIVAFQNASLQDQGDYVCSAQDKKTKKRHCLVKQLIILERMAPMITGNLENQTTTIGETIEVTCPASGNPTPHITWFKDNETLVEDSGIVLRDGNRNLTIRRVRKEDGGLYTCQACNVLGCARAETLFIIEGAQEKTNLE
T2 sequence (P35969 23-759, stated change not applied): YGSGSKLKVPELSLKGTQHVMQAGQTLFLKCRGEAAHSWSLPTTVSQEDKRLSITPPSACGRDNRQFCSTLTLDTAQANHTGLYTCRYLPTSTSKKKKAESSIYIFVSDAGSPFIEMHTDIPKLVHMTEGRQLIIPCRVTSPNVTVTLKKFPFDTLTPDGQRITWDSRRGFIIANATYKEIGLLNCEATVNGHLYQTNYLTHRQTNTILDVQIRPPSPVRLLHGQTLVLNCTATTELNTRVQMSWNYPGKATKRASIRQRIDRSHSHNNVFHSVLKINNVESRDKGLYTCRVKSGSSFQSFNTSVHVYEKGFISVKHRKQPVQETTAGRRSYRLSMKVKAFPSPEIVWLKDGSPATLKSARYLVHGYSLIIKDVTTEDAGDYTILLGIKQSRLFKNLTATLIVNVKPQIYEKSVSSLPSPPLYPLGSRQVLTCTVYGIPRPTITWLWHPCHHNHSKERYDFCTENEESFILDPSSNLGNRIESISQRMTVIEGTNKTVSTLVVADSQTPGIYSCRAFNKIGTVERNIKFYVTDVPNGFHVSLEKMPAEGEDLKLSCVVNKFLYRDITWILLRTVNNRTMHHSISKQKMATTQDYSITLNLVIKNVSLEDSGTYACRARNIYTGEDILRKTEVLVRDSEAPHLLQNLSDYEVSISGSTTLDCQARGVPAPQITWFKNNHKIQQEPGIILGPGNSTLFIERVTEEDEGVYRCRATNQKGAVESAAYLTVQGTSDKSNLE

| Binder | IC50 (read off the curve) [2] [nM] | IC50 (read off the curve) [6] [nM] | IC50 (read off the curve) [7] [nM] | other results |
| --- | --- | --- | --- | --- |
| B1 | ~0.02 | ~0.08 |  | IC50 [1]: 0.128 nM; IC50 (read off the curve) [3]: ~0.2 nM; fold stronger competitive binding than HBD [4]: ~230 fold; IC50 (read off the curve) [5]: ~0.04 nM |
| B2 |  |  | ~0.4 | fold reduction of binding affinity compared to VEGF164 [1]: 2.5 fold |
| B3 | ~0.09 | ~0.08 |  |  |
| B4 |  |  |  | IC50 [8]: 28.6 nM |
| B5 |  |  | ~5 |  |
